“Also recorded” adds a separate entry of the source.

The assay concerns the target T1, fibrin (Mus musculus, UniProt E9PV24+Q8K0E8+Q8VCM7).
T1 construct: from tissue; host or cells: citrated mouse plasma, diluted tenfold
T1 sequence (Q8VCM7 26-436): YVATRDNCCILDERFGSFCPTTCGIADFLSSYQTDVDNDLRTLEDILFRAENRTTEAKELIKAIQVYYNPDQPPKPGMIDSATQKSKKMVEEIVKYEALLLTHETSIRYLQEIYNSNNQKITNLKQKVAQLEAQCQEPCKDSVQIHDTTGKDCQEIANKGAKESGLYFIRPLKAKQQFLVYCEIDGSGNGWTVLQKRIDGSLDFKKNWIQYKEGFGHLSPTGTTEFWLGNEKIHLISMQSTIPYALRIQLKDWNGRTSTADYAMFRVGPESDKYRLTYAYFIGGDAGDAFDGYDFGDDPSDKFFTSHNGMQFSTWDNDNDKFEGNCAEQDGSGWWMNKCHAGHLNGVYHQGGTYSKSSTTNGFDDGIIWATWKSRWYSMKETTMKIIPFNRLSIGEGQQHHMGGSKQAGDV
T1 sequence (E9PV24 37-789 limits assumed): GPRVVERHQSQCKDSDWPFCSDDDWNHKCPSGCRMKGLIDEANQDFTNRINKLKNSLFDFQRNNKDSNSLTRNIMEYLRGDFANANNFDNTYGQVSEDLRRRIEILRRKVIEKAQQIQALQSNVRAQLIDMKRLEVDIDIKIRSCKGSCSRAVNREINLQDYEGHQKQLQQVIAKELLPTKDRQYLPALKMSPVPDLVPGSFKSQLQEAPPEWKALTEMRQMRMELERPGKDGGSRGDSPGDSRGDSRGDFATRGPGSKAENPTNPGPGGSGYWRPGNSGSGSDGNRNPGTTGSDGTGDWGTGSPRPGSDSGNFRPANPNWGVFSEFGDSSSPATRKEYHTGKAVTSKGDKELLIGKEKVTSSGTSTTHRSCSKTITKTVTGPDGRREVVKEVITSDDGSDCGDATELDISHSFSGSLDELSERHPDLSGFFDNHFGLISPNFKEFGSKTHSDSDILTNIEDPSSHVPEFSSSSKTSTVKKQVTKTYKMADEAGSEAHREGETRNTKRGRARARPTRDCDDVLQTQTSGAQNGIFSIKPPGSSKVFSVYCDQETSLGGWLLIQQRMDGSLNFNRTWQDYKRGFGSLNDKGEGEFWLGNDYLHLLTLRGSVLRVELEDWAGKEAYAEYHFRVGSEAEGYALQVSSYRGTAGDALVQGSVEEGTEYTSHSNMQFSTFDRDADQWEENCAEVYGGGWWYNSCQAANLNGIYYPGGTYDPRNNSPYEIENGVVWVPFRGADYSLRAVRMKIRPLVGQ
T1 sequence (Q8K0E8 35-481 limits assumed): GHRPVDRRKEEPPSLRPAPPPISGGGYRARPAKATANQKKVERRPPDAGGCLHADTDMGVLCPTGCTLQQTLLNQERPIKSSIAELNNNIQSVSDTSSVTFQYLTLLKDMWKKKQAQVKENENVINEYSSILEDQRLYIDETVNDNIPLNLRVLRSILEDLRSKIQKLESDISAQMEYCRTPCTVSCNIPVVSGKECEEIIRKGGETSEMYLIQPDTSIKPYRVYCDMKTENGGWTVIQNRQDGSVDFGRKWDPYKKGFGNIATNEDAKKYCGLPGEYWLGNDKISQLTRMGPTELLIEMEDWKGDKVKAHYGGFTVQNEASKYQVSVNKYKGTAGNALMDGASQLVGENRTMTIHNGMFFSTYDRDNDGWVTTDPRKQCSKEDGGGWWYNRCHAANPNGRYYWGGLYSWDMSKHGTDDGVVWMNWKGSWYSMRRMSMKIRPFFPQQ
In words: In vitro fibrin polymerization turbidity assay in plasma. It is filed as biochemical. Conditions: citrate plasma, bovine thrombin 0.2 U/ml, OD350. The method, then: Hematological Analyses. Citrated plasma was prepared from mice administered intranasally 30 μg or 90 μg of γ^377-395 peptide or saline control daily for seven days. Plasma clotting times were measured by combining 10 μl of citrated plasma with 10 μl of 2 U/ml bovine thrombin (Enzyme Research Laboratories, South Bend, Ind., USA) and 40 mM. CaCl2 in a weigh boatfloating in a 37° C. water bath. Time to clot was determined by mixing with a toothpick. Plasma thrombin times were established as described previously (15). Fibrin polymerization was evaluated by standard turbidity assays using plasma. Briefly, citrate plasma (diluted tenfold in 20 mM HEPES, pH 7.4, containing 0.15 M NaCl and 5 mM-amino caproic acid) was combined with bovine thrombin (final concentration 0.2 U/ml; Enzyme Research Laboratories, South Bend, Ind., USA), and Ca^2+ (10 mM), and OD350 measurements were taken every 30 seconds.

In the case of “tyr-ser-met-lys-lys-thr-thr-met-lys-ile-ile-pro-phe-asn-arg-leu-thr-ile-gly (YSMKKTTMKIIPFNRLTIG) (listed as Homo sapiens) [γ^377-395 peptide]”, the “effect on fibrin polymerization” value was “did not alter; also recorded: had no effect”.

The record behind these values is patent US8569242B2, “Method of treating degenerative disorders of the nervous system” (The Regents of the University of California, priority 2005, dated 2013).
